Laboratory results as given in patent US20260022353.

Molecular target: piggyBac transposase, 5 hyperactive mutations (Hyper) I30V,G165S,M226F,M282V,N538K (Trichoplusia ni?) (UniProt Q27026)
Assay: cell_activity
Conditions: ~50% enhanced integration in K562 (p260); ~50% enhanced excision in 293T (p263)

Sequence of UniProt Q27026 (Q27026 entry or part of it I30V G165S M226F M282V N538K): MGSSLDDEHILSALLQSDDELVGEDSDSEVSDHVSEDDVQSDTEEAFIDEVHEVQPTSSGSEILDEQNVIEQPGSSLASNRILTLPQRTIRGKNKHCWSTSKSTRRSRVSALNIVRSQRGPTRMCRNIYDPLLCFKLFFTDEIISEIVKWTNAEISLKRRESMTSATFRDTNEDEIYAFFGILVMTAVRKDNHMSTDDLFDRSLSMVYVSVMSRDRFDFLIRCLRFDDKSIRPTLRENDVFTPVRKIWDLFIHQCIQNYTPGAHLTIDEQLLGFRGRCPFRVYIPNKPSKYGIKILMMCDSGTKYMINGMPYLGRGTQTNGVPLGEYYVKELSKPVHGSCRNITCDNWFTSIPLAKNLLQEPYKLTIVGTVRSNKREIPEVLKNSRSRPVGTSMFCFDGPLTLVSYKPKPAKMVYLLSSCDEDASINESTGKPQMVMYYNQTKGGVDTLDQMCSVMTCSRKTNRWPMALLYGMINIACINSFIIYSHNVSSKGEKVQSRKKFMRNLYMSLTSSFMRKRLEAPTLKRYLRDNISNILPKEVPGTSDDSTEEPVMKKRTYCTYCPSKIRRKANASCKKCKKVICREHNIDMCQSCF

In the case of “piggyBac transposon with wild type LE and RE ITRs (dual reporter)”, the activity (fold vs 4-mutation SPB) is reported as 1.5.
